According to patent US8936806B2, “Periostin induces proliferation of cardiomyocytes and promotes cardiac regeneration” (Children's Medical Center Corporation, priority 2007, dated 2015):
Entries after “also recorded” stand apart in the source; their conditions may differ.

Experiments:
[1] = system: primary adult rat ventricular cardiomyocytes; assay: DNA synthesis (BrdU uptake, immunofluorescence) in primary adult rat ventricular cardiomyocytes; format: cell-based
Description: Primary neonatal rat ventricular cardiomyocytes were isolated using the Neomyts kit (Cellutron, Highland Park, N.J.), seeded at a density of 10^5 cells/cm^2 onto gelatin-coated cover slips, stimulated for 3 days, and labeled with BrdU for the terminal 2 days. Primary adult ventricular cardiomyocytes were isolated from male (300 gm) Wistar rats (Charles River Laboratories) and maintained as described (Engel, F. B. et al. p38 MAP kinase inhibition enables proliferation of adult mammalian cardiomyocytes. Genes Dev 19, 1175-87 (2005)). Adult cardiomyocytes were stimulated daily for 9 days and labeled with 30 μM BrdU for the terminal 3 days. Cardiomyocytes were stimulated with periostin (500 ng/mL) and FGF (100 ng/mL). […] The vehicle used to dissolve factors or chemicals was added to unstimulated samples, which were then processed together with the test samples. DNA-synthesis was analyzed by visualization of BrdU uptake and cytokinesis was determined by detection of the cleavage furrow and the midbody with an antibody against aurora B kinase as described (Engel, F. B. et al. p38 MAP kinase inhibition enables proliferation of adult mammalian cardiomyocytes. Genes Dev 19, 1175-87 (2005)). Signals were visualized with secondary antibodies conjugated to Alexa 488, Alexa 546, Alexa 594, and Alexa 647 (Invitrogen). […] For image acquisition, the value for γ was set at 1 and the lookup table settings were linear. Primary adult rat ventricular cardiomyocytes were grown on gridded cover slips (Electron Microscopy Services, Ft. Washington, Pa.) and imaged in phase contrast at 10× magnification. Cardiomyocytes were transduced with an adenovirus leading to nuclear expression of histone2B-GFP (Shi, Q. & King, R. W. Nature 437, 1038-42 (2005)) under control of the chicken troponin T promoter ([…]. Am J Physiol Cell Physiol 286, […]-64 (2004)). Nuclei were visualized at 10× magnification with a mercury-arc lamp dimmed to 1.5% with a neutral density filter. […] Images of BrdU-positive cardiomyocytes were matched with the corresponding images from before stimulation. For quantification, differentiated cardiomyocytes were defined as striated rod-shaped structures with length/width ratio>1.5.

[2] = system: primary adult rat ventricular cardiomyocytes; assay: Cytokinesis (aurora B kinase) in primary adult rat ventricular cardiomyocytes; format: cell-based
Description: Primary neonatal rat ventricular cardiomyocytes were isolated using the Neomyts kit (Cellutron, Highland Park, N.J.), seeded at a density of 10^5 cells/cm^2 onto gelatin-coated cover slips, stimulated for 3 days, and labeled with BrdU for the terminal 2 days. Primary adult ventricular cardiomyocytes were isolated from male (300 gm) Wistar rats (Charles River Laboratories) and maintained as described (Engel, F. B. et al. p38 MAP kinase inhibition enables proliferation of adult mammalian cardiomyocytes. Genes Dev 19, 1175-87 (2005)). Adult cardiomyocytes were stimulated daily for 9 days and labeled with 30 μM BrdU for the terminal 3 days. Cardiomyocytes were stimulated with periostin (500 ng/mL) and FGF (100 ng/mL). Inhibiting antibodies were added at a concentration of 10 μg/mL, cRGD at 10 μM, U0126 at 10 μM, PD98059 at 1 μM, LY294002 at 10 μM, and Wortmannin at 0.1 μM 30 min prior to stimulation. The vehicle used to dissolve factors or chemicals was added to unstimulated samples, which were then processed together with the test samples.
DNA-synthesis was analyzed by visualization of BrdU uptake and cytokinesis was determined by detection of the cleavage furrow and the midbody with an antibody against aurora B kinase as described (Engel, F. B. et al. p38 MAP kinase inhibition enables proliferation of adult mammalian cardiomyocytes. Genes Dev 19, 1175-87 (2005)). Signals were visualized with secondary antibodies conjugated to Alexa 488, Alexa 546, Alexa 594, and Alexa 647 (Invitrogen). Nuclei were visualized with 4′,6′-diamidino-2-phenylindole (DAPI, Invitrogen). For image acquisition, the value for γ was set at 1 and the lookup table settings were linear.

[3] = system: differentiated cardiomyocytes; assay: Hypertrophy by [3H]leucine uptake; format: cell-based, rat; settings: phenylephrine 10 mM [sic]; all time points tested
Description: Induction of the fetal gene program is accompanied by increased protein synthesis leading to cardiomyocyte hypertrophy. We assessed cardiomyocyte hypertrophy by measuring uptake of [^3H]leucine.

[4] = system: Adult male Sprague-Dawley rats; assay: Rat model of myocardial infarction: echocardiography and catheterization; format: in vivo; settings: for Maximum left ventricular elastance / Maximum rate of left ventricular pressure rise / Preload-recruitable stroke work / Slope of end-systolic pressure-volume relationship: catheterization, 12 weeks
Description: Adult male Sprague-Dawley rats (300 gm, Charles River Laboratories) underwent experimental myocardial infarction as described (del Monte, F. et al. Abrogation of ventricular arrhythmias in a model of ischemia and reperfusion by targeting myocardial calcium cycling. Proc Natl Acad Sci USA 101, 5622-7 (2004)). The survival rate was 67%. Gelfoam loaded with 100 μg of recombinant periostin or with buffer were applied over the myocardial infarction at the time of surgery. Rats received 3 intraperitoneal BrdU injections (70 μmol/kg body weight) with a half-life of 2 hr every 48 hr over a period of 7 days. Echocardiography and hemodynamic catheterization were performed as described (Prunier, F. et al. Am J Physiol Heart Circ Physiol (2006)).

[5] = H2B-GFP, after 6 days, 3 days BrdU labeling, stimulus not named in block (periostin section)
[6] = 12 weeks after MI, listed as Periostin

B1: periostin: Recombinant periostin, purified from HEK293 cells expressing the full-length human cDNA; secreted protein of 834 amino acids (Seq ID. No. 1) (protein, listed as Homo sapiens)
chain: MIPFLPMFSLLLLLIVNPINANNHYDKILAHSRIRGRDQGPNVCALQQILGTKKKYFSTCKNWYKKSICGQKTTVLYECCPGYMRMEGMKGCPAVLPIDHVYGTLGIVGATTTQRYSDASKLREEIEGKGSFTYFAPSNEAWDNLDSDIRRGLESNVNVELLNALHSHMINKRMLTKDLKNGMIIPSMYNNLGLFINHYPNGVVTVNCARIIHGNQIATNGVVHVIDRVLTQIGTSIQDFIEAEDDLSSFRAAAITSDILEALGRDGHFTLFAPTNEAFEKLPRGVLERFMGDKVASEALMKYHILNTLQCSESIMGGAVFETLEGNTIEIGCDGDSITVNGIKMVNKKDIVTNNGVIHLIDQVLIPDSAKQVIELAGKQQTTFTDLVAQLGLASALRPDGEYTLLAPVNNAFSDDTLSMVQRLLKLILQNHILKVKVGLNELYNGQILETIGGKQLRVFVYRTAVCIENSCMEKGSKQGRNGAIHIFREIIKPAEKSLHEKLKQDKRFSTFLSLLEAADLKELLTQPGDWTLFVPTNDAFKGMTSEEKEILIRDKNALQNIILYHLTPGVFIGKGFEPGVTNILKTTQGSKIFLKEVNDTLLVNELKSKESDIMTTNGVIHVVDKLLYPADTPVGNDQLLEILNKLIKYIQIKFVRGSTFKEIPVTVYTTKIITKVVEPKIKVIEGSLQPIIKTEGPTLTKVKIEGEPEFRLIKEGETITEVIHGEPIIKKYTKIIDGVPVEITEKETREERIITGPEIKYTRISTGGGETEETLKKLLQEEVTKVTKFIEGGDGHLFEDEEIKRLLQGDTPVRKLQANKKVQGSRRRLREGRSQ
increase of cardiomyocyte DNA synthesis ([1]; 9 days periostin 500 ng/mL, vs non-stimulated): 14 fold
cardiomyocyte DNA synthesis ([1]; 9 days stimulation (periostin 500 ng/mL, FGF 100 ng/mL), BrdU terminal 3 days): 1.1±0.2%
BrdU-positive binucleated cardiomyocytes [1, 5]: 0.2±0.03%
BrdU-positive mononucleated cardiomyocytes [1, 5]: 1.7±0.3%
start of periostin-induced cardiomyocyte DNA synthesis ([1]; time-course of stimulation): 3 days
cytokinesis, of all differentiated cardiomyocytes ([2]; 9 days stimulation): 0.5±0.2%
BrdU-labeled nuclei in cardiomyocyte cytokineses ([2]; N=15): 100%
first detection of cytokinesis ([2]; time-course of stimulation): ≥ 6 days
[3H]leucine uptake (hypertrophy) [3]: did not induce uptake; also recorded: did not induce hypertrophy
Ejection fraction ([4]; 1 week after MI): 53%
End-diastolic dimension ([4]; 1 week after MI): 8.1 ± 0.4 mm
End-systolic dimension ([4]; 1 week after MI): 6.1 ± 0.4 mm
Shortening fraction ([4]; 1 week after MI, periostin Gelfoam 100 μg): 25%
Shortening fraction ([4]; 1 week after MI, periostin Gelfoam 100 μg, listed as Periostin): 25.2 ± 2.1%
Ejection fraction ([4]; 1 week after MI, listed as Periostin): 52.6 ± 2.9%
Ejection fraction ([4]; 12 weeks after MI): 66%
End-diastolic dimension ([4]; 12 weeks after MI): significantly smaller
End-systolic dimension ([4]; 12 weeks after MI): 6 ± 0.5 mm
Shortening fraction ([4]; 12 weeks after MI): 33%
Ejection fraction [4, 6]: 65.9 ± 3.8%
End-diastolic dimension [4, 6]: 8.4 ± 0.2 mm
Shortening fraction [4, 6]: 33.0 ± 2.6%
Maximum left ventricular elastance [4]: higher
Maximum rate of left ventricular pressure rise [4]: higher
Preload-recruitable stroke work [4]: higher
Slope of end-systolic pressure-volume relationship [4]: steeper slope
Maximum left ventricular elastance ([4]; listed as Periostin): 2.5 ± 1
Maximum rate of left ventricular pressure rise ([4]; listed as Periostin): 4821 ± 513 mm Hg/s
Preload-recruitable stroke work ([4]; listed as Periostin): 68.6 ± 13.9 mm Hg
Slope of end-systolic pressure-volume relationship ([4]; listed as Periostin): 1.4 ± 0.2 mm Hg/μL
